Molecular target: T1, AGT-LM, minor allele of the human alanine glyoxylate aminotransferase (Homo sapiens, AGXT minor allele (AGT-LM), UniProt P21549, strain)
T1 construct: alanine:glyoxylate aminotransferase, human, minor allele (AGT-LM)
Assay: SPR; Biacore T200; His-tagged NB-AGT captured on a Ni-loaded NTA chip and covalently immobilised (EDC/NHS); AGT-LM injected at 0.74-60 nM in HBS-EP+ (10 mM HEPES, 150 mM NaCl, 3 mM EDTA, 0.05% Tween 20), single cycle kinetics, 120 s pulses, 70 uL/min; 25 °C; 1:1 interaction model
Settings: both partners purified

Binder | Kd [nM]
NB-AGT-1 (VHH, also in the AlphaFold 2 model files of Data S1; Selected by phage display from an immunised llama; Covalently immobilised on the NTA chip after capture by its His tag; also called NB-1; nanobody 1 raised against AGT-LM; source: E. coli BL21 (DE3), pET-24(+), purified (IMAC, SuperDex 75 SEC); not shown: His6, C-terminal, kept) VHH: QVQLVESGGGLVQAGDSLRLSCAASGLAFSTYGMGWFRQAPGKEREFVADINWSGSSTYVADSVKGRFTISRDNAKNTVYLQMNRLKPEDTAVYSCAAAPGGGLRAGPSRRYEYWGQGTQVTVSS | 3.8
NB-AGT-6 (VHH, also in the AlphaFold 2 model files of Data S1; Selected by phage display from an immunised llama; Covalently immobilised on the NTA chip after capture by its His tag; also called NB-6; nanobody 6 raised against AGT-LM; source: E. coli BL21 (DE3), pET-24(+), purified (IMAC, SuperDex 75 SEC); not shown: His6, C-terminal, kept) VHH: QVQLVESGGGSVQTGGSLRLACVASGFTSDHYSIGWFRQAPGKEREGVSCIGMHDGSTKYAESVKGRFTISSDNDKNTVYLQMNSLKPEDTAVYYCAAGPLVLLDSDTYQSWGEGTQVTVSS | ~0.005

Reference: article PMC11891404, “Thermodynamic versus kinetic basis for the high conformational stability of nanobodies for therapeutic applications” (Febs Letters, 2024)
